This test deals with Skp(S126C) (UniProt P0AEU7). The experiment in a line: SEC; HiLoad 16/600 Superdex 200 pg; NMR buffer (20 mM MES, pH 6.5, 150 mM NaCl, 1 mM DTT); refolded protein eluted at 79 mL. For orientation: SEC sorts molecules by how far they enter the pores of the column.

For “Skp(S126C) (from UniProt P0AEU7 21-161) (natural protein)”, the stoichiometry N (in general, a count of units in the complex or per binding partner) was found to be 3.
